Test results from article PMC2647301.

Target: T1, Y2 I-AniI (Aspergillus nidulans (mitochondrial)?, UniProt P03880 235-488, F247Y;S345Y;F314K;L466K)
T1 sequence: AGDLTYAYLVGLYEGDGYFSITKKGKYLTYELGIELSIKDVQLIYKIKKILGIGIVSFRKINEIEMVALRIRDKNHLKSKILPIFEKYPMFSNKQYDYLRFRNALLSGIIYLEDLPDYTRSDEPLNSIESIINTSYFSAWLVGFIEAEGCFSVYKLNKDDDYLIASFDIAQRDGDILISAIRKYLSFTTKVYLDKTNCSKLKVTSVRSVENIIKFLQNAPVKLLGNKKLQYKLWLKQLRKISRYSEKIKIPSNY
Test: X-ray crystallography

B1: Y2 co-crystal I-AniI target duplex (dsDNA)
DNA 1: GCGCGCTGAGGAGGTTTCTCTGTAAAGCGCA
DNA 2: GCGCTTTACAGAGAAACCTCCTCAGCGCGCT
binding result: binds
